Test results published in patent publication US20180037651A1 (Janssen / Centocor, published 2018).

T1: cyno GPRC5D (cyno, UniProt Q9NZD1 1-343 (human entry))
T1 chain: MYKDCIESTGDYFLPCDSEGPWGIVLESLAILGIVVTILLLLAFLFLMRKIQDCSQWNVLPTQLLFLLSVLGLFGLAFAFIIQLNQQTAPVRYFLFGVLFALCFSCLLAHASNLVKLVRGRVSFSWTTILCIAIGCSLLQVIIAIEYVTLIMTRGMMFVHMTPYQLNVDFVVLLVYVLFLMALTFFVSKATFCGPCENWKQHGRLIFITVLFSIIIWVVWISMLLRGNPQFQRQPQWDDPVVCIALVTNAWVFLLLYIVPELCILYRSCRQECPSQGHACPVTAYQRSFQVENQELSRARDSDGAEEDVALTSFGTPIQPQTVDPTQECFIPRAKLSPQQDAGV

T2: murine GPRC5D (murine, UniProt Q9JIL6 1-344)
T2 construct: also called mouse GPRC5D
T2 sequence: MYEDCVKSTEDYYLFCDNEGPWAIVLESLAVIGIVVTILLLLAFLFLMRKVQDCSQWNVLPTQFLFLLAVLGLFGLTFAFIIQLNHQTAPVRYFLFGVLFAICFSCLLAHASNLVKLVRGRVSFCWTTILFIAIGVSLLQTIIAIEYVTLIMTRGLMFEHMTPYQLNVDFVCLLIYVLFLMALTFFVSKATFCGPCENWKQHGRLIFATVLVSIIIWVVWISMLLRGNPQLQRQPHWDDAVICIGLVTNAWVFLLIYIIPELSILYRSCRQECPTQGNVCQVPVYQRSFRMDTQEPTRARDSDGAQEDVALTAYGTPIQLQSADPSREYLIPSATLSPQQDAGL

B1: GC5B602 (antibody, IgG1, V domains shown)
VH: QVQLVQSGAEVKKPGASVKVSCKASGYSFTGYTMNWVRQAPGQGLEWMGLINPYNGDTNYAQKLQGRVTMTTDTSTSTAYMELRSLRSDDTAVYYCARVALRVALDYWGQGTLVTVSS
VL: DIQMTQSPSSLSASVGDRVTITCKASQNVATHVGWYQQKPGKAPKRLIYSASYRYSGVPSRFSGSGSGTEFTLTISNLQPEDFATYYCQQYNRYPYTFGQGTKLEIK
notes: IgG1 form of GC5B515
B2: GCDB45 (bispecific antibody, IgG4, V domains shown)
VH 1: EVQLVQSGAEVKKPGESLKISCKGSGYSFTSYWIGWVRQMPGKGLEWMGIIYPGDSDTRYSPSFQGQVTISADKSISTAYLQWSSLKASDTAMYYCARIGFYGRSFRIFDYWGQGTLVTVSS
VL 1: EIVLTQSPATLSLSPGERATLSCRASQSVSSYLAWYQQKPGQAPRLLIYDASNRATGIPARFSGSGSGTDFTLTISSLEPEDFAVYYCQQRSNWPLTFGQGTKVEIK
VH 2: EVQLVESGGGLVQPGGSLRLSCAASGFTFNTYAMNWVRQAPGKGLEWVARIRSKYNNYATYYAASVKGRFTISRDDSKNSLYLQMNSLKTEDTAVYYCARHGNFGNSYVSWFAYWGQGTLVTVSS
VL 2: QTVVTQEPSLTVSPGGTVTLTCRSSTGAVTTSNYANWVQQKPGQAPRGLIGGTNKRAPGTPARFSGSLLGGKAALTLSGVQPEDEAEYYCALWYSNLWVFGGGTKLTVL
notes: IgG4-PAA bispecific; also called GC5B332 x CD3B219
B3: GCDB61 (bispecific antibody, IgG4, V domains shown)
VH 1: EVQLVQSGAEVKKPGESLKISCKGSGYSFTSYFIGWVRQMPGKGLEWMGIIYPGKSDTRYSPSFQGQVTISADKSISTAYLQWSSLKASDTAMYYCARVYSFGGRHKALFDYWGQGTLVTVSS
VL 1: B2 VL 1
VH 2: B2 VH 2
VL 2: B2 VL 2
notes: IgG4-PAA by Fab arm exchange; CD3 arm also F405L, R409K; also called GC5B483 x CD3B219
B4: GCDB44 (bispecific antibody, IgG4, V domains shown)
VH 1: not shown
VL 1: B2 VL 1
VH 2: B2 VH 2
VL 2: B2 VL 2
notes: IgG4-PAA bispecific; also called GC5B320 x CD3B219
B5: GCDB32 (bispecific antibody, human IgG4 S228P, lambda, F234A L235A)
heavy 1: not shown
VL: not shown
heavy 2: EVQLVESGGGLVQPGGSLRLSCAASGFTFNTYAMNWVRQAPGKGLEWVARIRSKYNNYATYYAASVKGRFTISRDDSKNSLYLQMNSLKTEDTAVYYCARHGNFGNSYVSWFAYWGQGTLVTVSSASTKGPSVFPLAPCSRSTSESTAALGCLVKDYFPEPVTVSWNSGALTSGVHTFPAVLQSSGLYSLSSVVTVPSSSLGTKTYTCNVDHKPSNTKVDKRVESKYGPPCPPCPAPEAAGGPSVFLFPPKPKDTLMISRTPEVTCVVVDVSQEDPEVQFNWYVDGVEVHNAKTKPREEQFNSTYRVVSVLTVLHQDWLNGKEYKCKVSNKGLPSSIEKTISKAKGQPREPQVYTLPPSQEEMTKNQVSLTCLVKGFYPSDIAVEWESNGQPENNYKTTPPVLDSDGSFLLYSKLTVDKSRWQEGNVFSCSVMHEALHNHYTQKSLSLSLGK
light: QTVVTQEPSLTVSPGGTVTLTCRSSTGAVTTSNYANWVQQKPGQAPRGLIGGTNKRAPGTPARFSGSLLGGKAALTLSGVQPEDEAEYYCALWYSNLWVFGGGTKLTVLGQPKAAPSVTLFPPSSEELQANKATLVCLISDFYPGAVTVAWKADSSPVKAGVETTTPSKQSNNKYAASSYLSLTPEQWKSHRSYSCQVTHEGSTVEKTVAPTECS
notes: IgG4-PAA by Fab arm exchange; also called GC5B81 x CD3B219; copies: 1 + 1 + 1 + 1

Columns and labels:
human GPRC5D [1] = target: T3, human GPRC5D (human, UniProt Q9NZD1 1-345); test: FACS, GPRC5D+ MM1.R cells
T3 construct: on transfected HEK293/RBL cells or endogenous on myeloma cells (H929, MM1R, OPM2, LP1, JIM3, patient plasma cells); also called G protein-coupled receptor class C group 5 member D; hGPRC5D
T3 sequence (Q9NZD1 whole entry): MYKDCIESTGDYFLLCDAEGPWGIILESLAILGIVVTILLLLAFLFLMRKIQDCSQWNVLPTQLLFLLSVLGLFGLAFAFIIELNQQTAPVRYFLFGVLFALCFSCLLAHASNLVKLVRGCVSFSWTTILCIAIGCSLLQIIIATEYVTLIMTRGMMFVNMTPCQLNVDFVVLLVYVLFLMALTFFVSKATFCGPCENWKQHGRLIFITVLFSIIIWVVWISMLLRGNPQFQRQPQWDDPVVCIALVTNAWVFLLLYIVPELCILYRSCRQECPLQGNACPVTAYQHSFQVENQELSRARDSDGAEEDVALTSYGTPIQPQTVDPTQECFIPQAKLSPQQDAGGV
Method: The binding affinities of the GPRC5D antibodies on GPRC5D⁺ human MM cell line (MM1.R, purchased from ATCC (American Type Culture Collection)) were measured using FACS.
Binding is expressed as normalized geometrical mean fluorescence intensity as determined by FACS. Graphing and fitting of data were done in GraphPad Prism 6 using nonlinear regression with variable slope (four parameters) and least square fit method.

human GPRC5D [2] = target: T3, human GPRC5D; test: FACS, MM1R, H929 and human GPRC5D HEK293 cells
cyno GPRC5D [3] = target: T1, cyno GPRC5D; test: cell-based or functional assay
cyno GPRC5D [4] = target: T1, cyno GPRC5D; test: cell-based or functional assay
human GPRC5D [5] = target: T3, human GPRC5D; test: cell-based or functional assay
human GPRC5D [6] = target: T3, human GPRC5D; test: FACS binding to plasma cells in MM patient MM303BM bone marrow MNCs
human GPRC5D [7] = target: T3, human GPRC5D; test: FACS binding to plasma cells in MM patient MM305BM bone marrow MNCs
murine GPRC5D = target: T2, murine GPRC5D; test: FACS, murine GPRC5D
human GPRC5D [8] = target: T3, human GPRC5D; test: FACS titration, human GPRC5D HEK293 cells

| Binder | T cell mediated target cell killing, Cyno GPRC5D EC50 (cyno GPRC5D [3]) | T-cell redirection cytotoxicity EC50, cyno GPRC5D HEK cells (cyno GPRC5D [4]) | T-cell redirection cytotoxicity EC50, human GPRC5D HEK cells (human GPRC5D [5]) | EC50 (human GPRC5D [6]) | EC50 (human GPRC5D [7]) | MFI (murine GPRC5D) | other results |
| --- | --- | --- | --- | --- | --- | --- | --- |
| B1 |  |  |  |  |  |  | EC50 (human GPRC5D [1]): 135 nM |
| B2 | 2.82 nM |  |  |  |  |  | binding result (human GPRC5D [2]): binds |
| B3 |  | 1.22 nM | 0.03 nM | 5.53 nM | 6.93 nM | 3550 MFI |  |
| B4 |  |  |  |  |  |  | binding result (human GPRC5D [8]): binds |
| B5 | 0.19 nM | 0.07 nM | 0.04 nM | 16.1 nM | 70.4 nM | 1150 MFI |  |
